In article PMC11608337 (Nature Communications, 2024):

Biological target: T1, RING domain of IRF2BP2 (residues 498-578) (UniProt Q7Z5L9 498-578)
T1 sequence (looked up): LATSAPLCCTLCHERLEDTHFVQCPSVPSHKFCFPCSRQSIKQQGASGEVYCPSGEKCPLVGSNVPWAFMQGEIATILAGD
Assay: ITC

Row | Binder | fold increase of binding affinity (KD) over the shorter peptide [fold] | Kd [µM]
1 | RPDRETRASVIKKTSDITQ (peptide, UniProt P14316 325-343, looked up) [IRF2-L (residues 325-343)] | 3.9 | 
2 | RASVIKKT [IRF2 peptide (residues 331-338, RASVIKKT)] |  | 6.45
3 | RSVLVHAG [NFAT1 peptide (residues 782-789, RSVLVHAG)] |  | 514
4 | ERQQNRPSVITCASAG (peptide, UniProt Q14135 156-171, looked up) [VGLL4-L (residues 156-171)] | 2.1 | 
5 | GPGTPTRSSVITSARELHYG (peptide, UniProt Q05516 279-298, looked up) [ZBTB16-L (residues 279-298)] |  | 7.21
6 | RSSVITSA [RxSVI motif-containing peptide of ZBTB16 (residues 285-292, RSSVITSA)] |  | 12.6
7 | RGSVITSA [mouse ZBTB16 peptide (residues 285-292, RGSVITSA)] |  | 16.8
